From article PMC4708090 (Biochemistry, 2015) come the findings set out here.

Usually Kd stands for the free concentration of one partner at which half of the binding sites on the other are occupied at equilibrium, for simple one-to-one binding. The koff is a measure of how fast the partners let go of each other. The low end stands for slow dissociation, the high end for fast dissociation. One may read the kon as a measure of how fast the partners come together. A low value points to slow association. What is called stoichiometry N is a count of units in the complex or per binding partner.

B1: wt BfrB (Pseudomonas aeruginosa bacterioferritin B, 24-mer) (natural protein)
chain: not shown
B2: wt Bfd (C43S mutant of P. aeruginosa bacterioferritin-associated ferredoxin) (natural protein, Pseudomonas aeruginosa)
chain: MYVCLCQGVTDNQIRDAIYEGCCSYREVREATGVGTQCGKCASLAKQVVRETLNDLQSAQPVPAFGTTAFVAA

Series [1] has as its target B2. The experiment in a line: ITC. On the technique in general: In ITC the heat of successive injections is recorded.
The series “SEC” concerns the molecule itself. The experiment in a line: SEC. (In general: SEC sorts molecules by how far they enter the pores of the column.)
Series [2] has as its target B1. The experiment in a line: ITC.
Series [3] addresses B1. The series can be described thus: SPR. On the technique in general: SPR reads the build-up and loss of mass on a sensor chip optically.
The target in a further series is E81A BfrB (Pseudomonas aeruginosa, UniProt Q9HY79 1-158, E81A). The series can be described thus: SPR.
The target of another series is L68A BfrB (Pseudomonas aeruginosa, UniProt Q9HY79 1-158, L68A). The series can be described thus: SPR.
Another series concerns the target E85A BfrB (Pseudomonas aeruginosa, UniProt Q9HY79 1-158, E85A). The experiment in a line: SPR.
For series [4], the target named is B1. The experiment in a line: SPR. This is another data set of the same source.
In series [5] the target is B1. The series can be described thus: SPR. This is another data set of the same source.
The target of series [6] is B1. The series can be described thus: SPR. This is another data set of the same source.

B1: the dH in [1] came out at 1.6 ± 0.3 kcal/mol. Further, the binding result in the series “SEC” is recorded as “binds”.
In the case of B2, the Kd in series [2] is 4.2 ± 0.4 µM; in [3], 3.3 ± 0.5 µM; with E81A BfrB, 258 ± 21.5 µM; in the series with L68A BfrB it was 298 ± 20.5 µM; in the series with E85A BfrB it was 590 ± 2 µM; in series [4], 2.6 ± 0.4 µM. This molecule also displayed a koff in series [4] of 0.069 ± 0.01 s⁻¹. In addition, the kon in series [4] came to 26000 ± 2000 M⁻¹ s⁻¹. Besides, the “stoichiometry N” value in series [5] is 12.7 Bfd per 24-mer BfrB.

B3: Y2F Bfd (natural protein, Pseudomonas aeruginosa)
chain: MFVCLCQGVTDNQIRDAIYEGCCSYREVREATGVGTQCGKCASLAKQVVRETLNDLQSAQPVPAFGTTAFVAA
Regarding B3, the affinity in series [6], expressed as Kd, was 10.7 ± 0.2 µM.

B4: L5A Bfd (natural protein, Pseudomonas aeruginosa)
chain: MYVCACQGVTDNQIRDAIYEGCCSYREVREATGVGTQCGKCASLAKQVVRETLNDLQSAQPVPAFGTTAFVAA
B4 gave a Kd in series [6] of 82 ± 2.5 µM.

B5: K40A Bfd (natural protein, Pseudomonas aeruginosa)
chain: MYVCLCQGVTDNQIRDAIYEGCCSYREVREATGVGTQCGACASLAKQVVRETLNDLQSAQPVPAFGTTAFVAA
Consider B5, for which the Kd in series [6] turned out to be 7.7 ± 0.5 µM.
